Experimental data from patent US20120141464A1 (ZENYTH OPERATIONS, published 2012).

T1: human GM-CSFRα (human, UniProt P15509 23-400)
T1 sequence: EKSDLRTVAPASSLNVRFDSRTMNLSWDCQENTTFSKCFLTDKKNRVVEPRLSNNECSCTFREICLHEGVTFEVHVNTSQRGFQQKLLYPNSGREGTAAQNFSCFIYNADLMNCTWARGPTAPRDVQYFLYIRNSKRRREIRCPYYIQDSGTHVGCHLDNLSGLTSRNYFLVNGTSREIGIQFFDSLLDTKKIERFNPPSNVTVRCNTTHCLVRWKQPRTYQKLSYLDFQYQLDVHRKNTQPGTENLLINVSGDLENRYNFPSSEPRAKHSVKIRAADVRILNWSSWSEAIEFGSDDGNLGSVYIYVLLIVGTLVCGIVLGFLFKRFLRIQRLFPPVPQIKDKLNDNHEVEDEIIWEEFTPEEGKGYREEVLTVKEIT

T2: recombinant purification-tagged human GM-CSF receptor α extracellular domain (human, UniProt P15509 23-320)
T2 construct: Amino acids 1 to 298 of the mature receptor; also called purified GM-CSFRα extracellular domain; soluble extracellular domain of GM-CSFRα; not shown: N-terminal purification tag; Flag-tagged
T2 sequence: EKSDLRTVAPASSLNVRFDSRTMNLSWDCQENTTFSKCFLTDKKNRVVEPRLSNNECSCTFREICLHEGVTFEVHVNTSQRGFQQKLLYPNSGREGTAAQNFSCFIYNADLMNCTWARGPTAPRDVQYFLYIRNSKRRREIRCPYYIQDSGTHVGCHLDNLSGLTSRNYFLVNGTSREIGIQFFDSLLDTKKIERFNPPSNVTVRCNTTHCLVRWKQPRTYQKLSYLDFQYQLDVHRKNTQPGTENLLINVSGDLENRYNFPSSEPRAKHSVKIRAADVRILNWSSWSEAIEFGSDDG

B1: Antibody 6 (as listed; germlining state in the experiment not stated) (antibody, V domains shown)
VH: QVQLVQSGAEVKKPGASVKVSCKVSGYTLTELSIHWVRQAPGKGLEWMGGFDPEENEIVYAQRFQGRVTMTEDTSTDTAYMELSSLRSEDTAVYYCAIVGSFSPLTLGLWGQGTMVTVSS
VL: QSVLTQPPSVSGAPGQRVTISCTGSGSNIGAPYDVSWYQQLPGTAPKLLIYHNNKRPSGVPDRFSGSKSGTSASLAITGLQAEDEADYYCATVEAGLSGSVFGGGTKLTVL
B2: Antibody 2 (antibody, V domains shown)
VH: QVQLVQSGAEVKKPGASVKVSCKISGHSLSELSIHWVRQTPTKGFEWMGGFDPEENEIVYAQRFQGRVTMTEDTSIDTAYLTLSSLRSDDTAVYYCSIVGSFSGPALRPWGKGTMVTVSS
VL: QAVLTQPSSVSGAPGQRVTISCTGSGSNIGAPYDVSWYQQLPGTAPKLLIYHNNKRPSGVPDRFSASKSGTSASLAITGLQADDEADYYCQSYDSSLSGSVFGGGTKVTVL
notes: also called Antibody 02; Ab2

Legend:
[1] = target: T1, human GM-CSFRα; test: cell-based or functional assay
[2] = target: cynomolgus GM-CSFRα (cynomolgus); test: cell-based or functional assay
[3] = target: T2, recombinant purification-tagged human …; test: SPR (BIAcore 2000); IgG4 captured on protein A, tagged receptor ECD as analyte; 1:1 Langmuir fit
[4] = target: T1, human GM-CSFRα; test: cell-based or functional assay; remark: listed apart in the source
[5] = target: T1, human GM-CSFRα; test: cell-based or functional assay; remark: listed apart in the source
[6] = target: T1, human GM-CSFRα; test: cell-based or functional assay; remark: listed apart in the source

Binder	IC50, colony formation assay (10 ng/ml human GM-CSF) [1] [µg/mL]	IC50, cynomolgus granulocyte shape change assay (7 pM human GM-CSF) [2] [pM]	Kd [3] [nM]	IC50, monocyte TNFα release assay (1 nM human GM-CSF) [4] [nM]	IC50, TF-1 proliferation assay (7 pM human GM-CSF) [5] [pM]	IC50, human granulocyte shape change assay (7 pM human GM-CSF) [6] [pM]
B1	~0.08	1.73				
B2		3.2	0.376	0.103	15	20.7
